This assay deals with CD33 (human) (UniProt P20138). Nature of the assay: cell-based or functional assay.
UniProt P20138, sequence (P20138 18-364): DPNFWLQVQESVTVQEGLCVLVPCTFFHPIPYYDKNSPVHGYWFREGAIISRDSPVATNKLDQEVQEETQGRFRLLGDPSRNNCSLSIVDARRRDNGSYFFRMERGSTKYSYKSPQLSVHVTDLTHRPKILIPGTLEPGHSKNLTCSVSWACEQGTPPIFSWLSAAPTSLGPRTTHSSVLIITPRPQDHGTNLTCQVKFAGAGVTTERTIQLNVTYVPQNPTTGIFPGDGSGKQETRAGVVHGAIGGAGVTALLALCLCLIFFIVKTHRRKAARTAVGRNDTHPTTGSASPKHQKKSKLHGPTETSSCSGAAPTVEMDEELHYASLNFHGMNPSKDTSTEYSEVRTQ

“^225Ac-labeled lintuzumab (^225Ac-labeled conjugate of p-SCN-Bn-DOTA and lintuzumab) (antibody; the values are: LD50)” had a cytotoxicity on HL60 (leukemia cells): dose at which 50% of the cells were killed (LD50) of 8 pCi/mL.

Values taken from patent publication US20260053963A1.
